This is an account of results in PMC12183613, “Identification of novel small molecule inhibitors of ETS transcription factors”.

The data set has as its target ETV6 full-length (UniProt P41212 1-452). The experiment in a line: pull-down; fragment Fr18 (enhanced binding); Pull-down: 4 C, 30 min, 1 ug poly(dI/dC), 4 mM spermidine; wash in binding buffer 50 mM KCl, 10 mM HEPES pH 7.6, 5 mM MgCl2, 10 mM Tris pH 8, 0.05 mM EDTA, 0.1% Triton X-100, 20% glycerol. SPR: 25 mM HEPES pH 7.5, 100 mM NaCl, 1 mM EDTA, 1 mM beta-mercaptoethanol; NMR same buffer (296 K). Particulars: protein: ivt; tags: FLAG; only one strand given.

ETV6 full-length, sequence (P41212 whole entry, the tested form may be a part): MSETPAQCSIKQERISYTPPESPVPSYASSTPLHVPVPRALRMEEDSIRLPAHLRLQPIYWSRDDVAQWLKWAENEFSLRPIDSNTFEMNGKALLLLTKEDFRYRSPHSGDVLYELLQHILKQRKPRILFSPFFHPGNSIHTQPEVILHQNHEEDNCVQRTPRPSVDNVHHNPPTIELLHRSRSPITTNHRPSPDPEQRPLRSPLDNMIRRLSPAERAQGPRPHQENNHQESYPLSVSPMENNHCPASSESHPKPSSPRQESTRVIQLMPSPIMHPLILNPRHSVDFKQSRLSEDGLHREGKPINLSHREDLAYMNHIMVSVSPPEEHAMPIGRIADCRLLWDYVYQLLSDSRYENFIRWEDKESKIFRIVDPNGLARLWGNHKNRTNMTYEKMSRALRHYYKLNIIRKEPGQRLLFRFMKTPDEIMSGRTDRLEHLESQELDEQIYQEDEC

B1: 3x consensus ETS oligonucleotide (biotinylated) (dsDNA)
DNA 1: ACCGGAAGTACCGGAAGTACCGGAAGT
DNA 2: ACTTCCGGTACTTCCGGTACTTCCGGT
Take B1: the binding result is reported as “binds”.
